Target: HIF1α (hypoxia-inducible factor 1 alpha) (UniProt Q16665)
Test: cell-based or functional assay

Substance: EGL nine (C.elegans) homolog 3 (EGLN3), full length (from UniProt Q9H6Z9 1-239)
- HIF1α activity measured in Luciferase units from the HRE-Luc reporter, 293T cells in normoxia, co-transfected with CMV-HIF and CMV-SVFL1 (CMV-HIF with HRE-Luc alone: 20953 Luciferase units) (Luciferase units): 918

Reference: patent US20030203372A1, “Analysis method” (priority 2000, published 2003)
